Numbering of substitutions follows the chain as printed. Numbers in names are those of the source.
B1: wild-type C. trachomatis HtrA (CT823) (protein)
chain: SPMLGYSASKKDSKADICLAVSSGDQEVSQEDLLKEVSRGFSRVAAKATPGVVYIENFPKTGNQAIASPGNKRGFQENPFDYFNDEFFNRFFGLPSHREQQRPQQRDAVRGTGFIVSEDGYVVTNHHVVEDAGKIHVTLHDGQKYTAKIVGLDPKTDLAVIKIQAEKLPFLTFGNSDQLQIGDWAIAIGNPFGLQATVTVGVISAKGRNQLHIVDFEDFIQTDAAINPGNSGGPLLNINGQVIGVNTAIVSGSGGYIGIGFAIPSLMAKRVIDQLISDGQVTRGFLGVTLQPIDSELATCYKLEKVYGALVTDVVKGSPAEKAGLRQEDVIVAYNGKEVESLSALRNAISLMMPGTRVVLKIVREGKTIEIPVTVTQIPTEDGVSALQKMGVRVQNITPEICKKLGLAADTRGILVVAVEAGSPAASAGVAPGQLILAVNRQRVASVEELNQVLKNSKGENVLLMVSQGDVVRFIVLKSDE
B2: wild type C. muridarum HtrA (TC0210) (protein)
chain: SPMLGYSAPKKDSSTGICLAASQSDRELSQEDLLKEVSRGFSKVAAQATPGVVYIENFPKTGSQAIASPGNKRGFQENPFDYFNDEFFNRFFGLPSHREQPRPQQRDAVRGTGFIVSEDGYVVTNHHVVEDAGKIHVTLHDGQKYTAKIIGLDPKTDLAVIKIQAKNLPFLTFGNSDQLQIGDWSIAIGNPFGLQATVTVGVISAKGRNQLHIVDFEDFIQTDAAINPGNSGGPLLNIDGQVIGVNTAIVSGSGGYIGIGFAIPSLMAKRVIDQLISDGQVTRGFLGVTLQPIDSELAACYKLEKVYGALITDVVKGSPAEKAGLRQEDVIVAYNGKEVESLSALRNAISLMMPGTRVVLKVVREGKFIEIPVTVTQIPAEDGVSALQKMGVRVQNLTPEICKKLGLASDTRGIFVVSVEAGSPAASAGVVPGQLILAVNRQRVSSVEELNQVLKNAKGENVLLMVSQGEVIRFVVLKSDE
B3: TC0210-(H143R) (protein)
chain: B2 chain with H127R

Key:
[1] = target: bovine serum albumin, P02769
[2] = target: C. muridarum Major Outer Membrane Protein (MOMP)

Sequence of bovine serum albumin, P02769 (P02769 25-607): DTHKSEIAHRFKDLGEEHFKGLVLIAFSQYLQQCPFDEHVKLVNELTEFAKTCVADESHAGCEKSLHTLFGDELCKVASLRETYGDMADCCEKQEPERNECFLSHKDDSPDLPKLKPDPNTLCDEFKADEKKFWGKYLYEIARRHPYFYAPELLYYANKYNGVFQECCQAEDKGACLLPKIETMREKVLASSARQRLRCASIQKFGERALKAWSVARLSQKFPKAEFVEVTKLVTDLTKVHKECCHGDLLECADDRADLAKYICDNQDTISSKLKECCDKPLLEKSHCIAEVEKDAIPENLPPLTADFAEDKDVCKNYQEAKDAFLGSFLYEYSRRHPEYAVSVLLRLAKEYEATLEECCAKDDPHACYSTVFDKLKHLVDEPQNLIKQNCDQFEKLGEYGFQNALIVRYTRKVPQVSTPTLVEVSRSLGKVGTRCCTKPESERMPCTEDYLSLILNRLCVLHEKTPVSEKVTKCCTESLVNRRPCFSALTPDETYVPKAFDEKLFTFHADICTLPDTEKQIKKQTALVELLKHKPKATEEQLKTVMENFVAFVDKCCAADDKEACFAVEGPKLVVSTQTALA

Row | Protein | protease digestion of BSA, overnight at 37 C, SDS-PAGE/Coomassie, with DTT [1] | protease digestion of MOMP, SDS-PAGE/Coomassie, with DTT [2] | protease digestion of MOMP, SDS-PAGE/Coomassie, without DTT [2] | protease digestion of BSA, SDS-PAGE/Coomassie, with DTT [1] | protease digestion of MOMP, SDS-PAGE/Coomassie, with and without DTT [2]
1 | B1 | strong protease activity in the presence of the reducing agent DTT (dithiothreitol) as shown by degradation of the intact BSA protein | – | – | – | –
2 | B2 | – | completely degrades MOMP protein in the presence of DTT (lane 7) | strongly degrades MOMP protein in the absence of DTT (lane 5) | possesses a strong protease activity as it degrades the BSA substrate (lane 5) | –
3 | B3 | – | – | – | does not degrade the BSA substrate (lane 3) | does not degrade the MOMP protein, either in the presence of DTT (lane 8) or in the absence of DTT (lane 6)

Source: US20110110857
